Results as given in PMC5718613.

Target: S. aureus flotillin (FloA), fused to T25 or T18 fragments of an adenylate cyclase (S. aureus)
Assay: two-hybrid; bacterial two-hybrid in E. coli BTH101; FloA and T7SS membrane proteins fused C- and N-terminally with T18 and T25 fragments of adenylate cyclase; X-Gal plates (48 h, 30°C) and β-galactosidase activity in Miller Units; a 700 Miller Unit threshold defines positive and negative signals

Chain of S. aureus flotillin (FloA), fused to T25 or T18 fragments of an adenylate cyclase (S. aureus) (A6QHB6 whole entry, the tested form may be a part): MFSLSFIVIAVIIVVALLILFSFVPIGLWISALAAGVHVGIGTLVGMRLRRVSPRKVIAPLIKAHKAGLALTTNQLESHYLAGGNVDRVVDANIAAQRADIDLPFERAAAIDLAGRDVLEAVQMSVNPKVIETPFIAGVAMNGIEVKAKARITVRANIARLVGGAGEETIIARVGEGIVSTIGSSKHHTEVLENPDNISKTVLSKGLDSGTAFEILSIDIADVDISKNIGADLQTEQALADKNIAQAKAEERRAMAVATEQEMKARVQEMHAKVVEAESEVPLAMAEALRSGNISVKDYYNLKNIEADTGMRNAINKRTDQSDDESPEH

Question: “EssB, fused to T25 or T18 fragments of an adenylate cyclase (from UniProt Q2G185 1-444) (natural protein)” was tested. Which β-galactosidase activity (two-hybrid signal) did it give?
Answer: The β-galactosidase activity (two-hybrid signal) was greater than 2000 Miller Units.
